Target: T1, purified recombinant ectodomain of human MuSK fused to myc (hMuSKect-myc), wild type (human, UniProt O15146 24-495)
T1 construct: muscle-specific receptor tyrosine kinase (MuSK), human, ectodomain (Ig1, Ig2, Ig3, C6 box, Ig4); It holds the C6 box, since a ΔC6 form was made from it; also called Wt; source: HEK293, transfected with phMUSKect-myc; in lysate for co-IP; not shown: myc, C-terminal, kept
T1 sequence (looked up): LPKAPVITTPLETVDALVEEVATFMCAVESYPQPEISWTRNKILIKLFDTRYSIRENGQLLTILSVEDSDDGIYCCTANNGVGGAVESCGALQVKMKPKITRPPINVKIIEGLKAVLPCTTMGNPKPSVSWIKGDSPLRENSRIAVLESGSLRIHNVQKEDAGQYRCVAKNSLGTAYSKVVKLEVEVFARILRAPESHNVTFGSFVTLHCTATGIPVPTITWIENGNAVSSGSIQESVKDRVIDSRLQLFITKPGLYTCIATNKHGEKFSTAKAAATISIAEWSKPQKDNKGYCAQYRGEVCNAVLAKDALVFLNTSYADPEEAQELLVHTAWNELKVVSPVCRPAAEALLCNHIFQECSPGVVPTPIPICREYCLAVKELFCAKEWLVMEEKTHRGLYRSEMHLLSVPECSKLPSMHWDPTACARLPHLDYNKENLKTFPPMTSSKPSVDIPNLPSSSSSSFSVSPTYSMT
Test: ELISA; in vitro plate-binding assay: 0.15 ug hMuSKect-myc coated on a Maxi-Sorp plate, blocked with 1% BSA; 0.12 ug hLRP4N-FLAG overlaid with or without 0.24 ug rat neural agrin, room temperature 2 h; bound hLRP4N-FLAG read with anti-FLAG-HRP, normalised to that without agrin
Conditions: both partners purified

B1: N-terminal ectodomain of human LRP4 fused to FLAG (hLRP4N-FLAG) (domain or fragment, UniProt O75096 21-1725, looked up)
chain: SSPECACGRSHFTCAVSALGECTCIPAQWQCDGDNDCGDHSDEDGCILPTCSPLDFHCDNGKCIRRSWVCDGDNDCEDDSDEQDCPPRECEEDEFPCQNGYCIRSLWHCDGDNDCGDNSDEQCDMRKCSDKEFRCSDGSCIAEHWYCDGDTDCKDGSDEENCPSAVPAPPCNLEEFQCAYGRCILDIYHCDGDDDCGDWSDESDCSSHQPCRSGEFMCDSGLCINAGWRCDGDADCDDQSDERNCTTSMCTAEQFRCHSGRCVRLSWRCDGEDDCADNSDEENCENTGSPQCALDQFLCWNGRCIGQRKLCNGVNDCGDNSDESPQQNCRPRTGEENCNVNNGGCAQKCQMVRGAVQCTCHTGYRLTEDGHTCQDVNECAEEGYCSQGCTNSEGAFQCWCETGYELRPDRRSCKALGPEPVLLFANRIDIRQVLPHRSEYTLLLNNLENAIALDFHHRRELVFWSDVTLDRILRANLNGSNVEEVVSTGLESPGGLAVDWVHDKLYWTDSGTSRIEVANLDGAHRKVLLWQNLEKPRAIALHPMEGTIYWTDWGNTPRIEASSMDGSGRRIIADTHLFWPNGLTIDYAGRRMYWVDAKHHVIERANLDGSHRKAVISQGLPHPFAITVFEDSLYWTDWHTKSINSANKFTGKNQEIIRNKLHFPMDIHTLHPQRQPAGKNRCGDNNGGCTHLCLPSGQNYTCACPTGFRKISSHACAQSLDKFLLFARRMDIRRISFDTEDLSDDVIPLADVRSAVALDWDSRDDHVYWTDVSTDTISRAKWDGTGQEVVVDTSLESPAGLAIDWVTNKLYWTDAGTDRIEVANTDGSMRTVLIWENLDRPRDIVVEPMGGYMYWTDWGASPKIERAGMDASGRQVIISSNLTWPNGLAIDYGSQRLYWADAGMKTIEFAGLDGSKRKVLIGSQLPHPFGLTLYGERIYWTDWQTKSIQSADRLTGLDRETLQENLENLMDIHVFHRRRPPVSTPCAMENGGCSHLCLRSPNPSGFSCTCPTGINLLSDGKTCSPGMNSFLIFARRIDIRMVSLDIPYFADVVVPINITMKNTIAIGVDPQEGKVYWSDSTLHRISRANLDGSQHEDIITTGLQTTDGLAVDAIGRKVYWTDTGTNRIEVGNLDGSMRKVLVWQNLDSPRAIVLYHEMGFMYWTDWGENAKLERSGMDGSDRAVLINNNLGWPNGLTVDKASSQLLWADAHTERIEAADLNGANRHTLVSPVQHPYGLTLLDSYIYWTDWQTRSIHRADKGTGSNVILVRSNLPGLMDMQAVDRAQPLGFNKCGSRNGGCSHLCLPRPSGFSCACPTGIQLKGDGKTCDPSPETYLLFSSRGSIRRISLDTSDHTDVHVPVPELNNVISLDYDSVDGKVYYTDVFLDVIRRADLNGSNMETVIGRGLKTTDGLAVDWVARNLYWTDTGRNTIEASRLDGSCRKVLINNSLDEPRAIAVFPRKGYLFWTDWGHIAKIERANLDGSERKVLINTDLGWPNGLTLDYDTRRIYWVDAHLDRIESADLNGKLRQVLVSHVSHPFALTQQDRWIYWTDWQTKSIQRVDKYSGRNKETVLANVEGLMDIIVVSPQRQTGTNACGVNNGGCTHLCFARASDFVCACPDEPDSRPCSLVPGLVPPAPRATGMSEKSPVLPNTPPTTLYSSTTRTRTSLEEVEGRCSERDARLGLCARSNDAVPAAPGEGLHIS
notes: low-density lipoprotein receptor-related protein 4 (LRP4), human, printed as 'the N-terminal ectodomain of human LRP4'; also called hLRP4-FLAG; source: HEK293, transfected with phLRP4N-FLAG; in lysate for co-IP; not shown: FLAG, C-terminal, kept
B1 was tested, and the “fold increase of bound hLRP4N-FLAG with agrin over without agrin” value was 36 fold.

From PMC4564764, “Collagen Q and anti-MuSK autoantibody competitively suppress agrin/LRP4/MuSK signaling” (Scientific Reports, 2015)
